The text below walks through data of paper PMC10691131, “Self S-RNase reduces the expression of two pollen-specific COBRA genes to inhibit pollen tube growth in pear”.

The target in the data set is T1, PbC2H2.K16.2 (pear, UniProt UPI0005117FCC 5-185).
T1 sequence: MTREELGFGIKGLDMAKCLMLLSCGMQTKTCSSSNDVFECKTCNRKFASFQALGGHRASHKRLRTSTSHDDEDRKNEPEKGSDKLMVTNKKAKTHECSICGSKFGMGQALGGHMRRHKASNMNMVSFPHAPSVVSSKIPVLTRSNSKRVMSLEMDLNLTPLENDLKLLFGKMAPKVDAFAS
Kind of data set: EMSA; 10x and 100x cold probe weakens signal; Buffer, salt, pH and temperature not stated; EMSA per Guo et al. 2021, MST per Singh et al. 2014 (Monolith NT.115). To be noted: protein: recombinant; tags: His; label: 5' biotin (EMSA).

B1: PbCOB.A.1 promoter probe (dsDNA)
DNA 1: TTCGAGGTTTTTGGTCCAGAAAGAAGAAGA
DNA 2: TCTTCTTCTTTCTGGACCAAAAACCTCGAA
Turning to B1, the binding result is listed as “binds”.

B2: PbCOB.A.2 promoter probe (PbC2H2.K16.2) (dsDNA)
DNA 1: TAAAAACATGATTGGTCCAATGCAAGTTAT
DNA 2: ATAACTTGCATTGGACCAATCATGTTTTTA
With B2, the binding result is “binds”.
